Test results published in paper PMC7261193, “The ancillary N-terminal region of the yeast AP-1 transcription factor Yap8 contributes to its DNA binding specificity”.

Key:
Conditions in all cases: protein: recombinant; tags: GST (N-term); chain copies: 2; label: 5' FAM; blunt
[1] = molecular target: T1, GST-Yap8-N20A (Saccharomyces cerevisiae, UniProt Q06596 1-294, N20A); experiment: fluorescence anisotropy; series a; FA: 10 mM Tris-HCl pH 8, 50 mM NaCl, 0.5% NP-40, 1 mM DTT, 5% glycerol, 1 nM DNA, 25C (half volume protein elution buffer). Biotin EMSA: LightShift 1x buffer, 50 ng poly(dI-dC), 2.5% glycerol, 0.05% NP-40, 5 mM MgCl2, 20 fmol probe, RT 20 min. 32P EMSA: 10 mM Tris-HCl pH 8.0, 50 mM NaCl, 1 mM DTT, 0.05% NP-40, 100 ng poly(dI-dC), 6% glycerol, 4C 30 min
T1 sequence: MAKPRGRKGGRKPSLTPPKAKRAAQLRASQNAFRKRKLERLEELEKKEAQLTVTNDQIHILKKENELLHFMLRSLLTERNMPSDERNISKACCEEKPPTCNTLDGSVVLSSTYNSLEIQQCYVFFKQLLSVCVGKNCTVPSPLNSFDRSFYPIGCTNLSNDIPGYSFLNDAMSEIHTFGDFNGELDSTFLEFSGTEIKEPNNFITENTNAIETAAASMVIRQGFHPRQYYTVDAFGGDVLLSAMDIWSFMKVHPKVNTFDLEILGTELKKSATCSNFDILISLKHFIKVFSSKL

[2] = molecular target: T2, GST-Yap8 WT (Saccharomyces cerevisiae, UniProt Q06596 1-294); experiment: as above
T2 sequence: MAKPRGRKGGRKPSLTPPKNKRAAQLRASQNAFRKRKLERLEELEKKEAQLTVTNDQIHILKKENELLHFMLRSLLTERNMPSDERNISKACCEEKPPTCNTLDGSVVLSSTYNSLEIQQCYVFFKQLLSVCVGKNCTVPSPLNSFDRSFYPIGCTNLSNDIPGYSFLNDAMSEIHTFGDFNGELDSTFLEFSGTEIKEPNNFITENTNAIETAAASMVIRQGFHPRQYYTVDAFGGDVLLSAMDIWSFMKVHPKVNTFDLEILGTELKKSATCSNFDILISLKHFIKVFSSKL

[3] = molecular target: T3, GST-Yap8-R7A (Saccharomyces cerevisiae, UniProt Q06596 1-294, R7A); experiment: fluorescence anisotropy; series b; FA: 10 mM Tris-HCl pH 8, 50 mM NaCl, 0.5% NP-40, 1 mM DTT, 5% glycerol, 1 nM DNA, 25C (half volume protein elution buffer). Biotin EMSA: LightShift 1x buffer, 50 ng poly(dI-dC), 2.5% glycerol, 0.05% NP-40, 5 mM MgCl2, 20 fmol probe, RT 20 min. 32P EMSA: 10 mM Tris-HCl pH 8.0, 50 mM NaCl, 1 mM DTT, 0.05% NP-40, 100 ng poly(dI-dC), 6% glycerol, 4C 30 min
T3 sequence: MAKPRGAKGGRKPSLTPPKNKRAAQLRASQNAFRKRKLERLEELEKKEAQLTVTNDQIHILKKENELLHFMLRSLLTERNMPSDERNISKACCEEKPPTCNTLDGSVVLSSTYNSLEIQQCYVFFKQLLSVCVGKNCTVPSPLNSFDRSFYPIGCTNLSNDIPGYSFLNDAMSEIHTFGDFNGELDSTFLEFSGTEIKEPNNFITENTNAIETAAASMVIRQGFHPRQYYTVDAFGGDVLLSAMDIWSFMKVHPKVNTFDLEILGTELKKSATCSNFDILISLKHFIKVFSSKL

[4] = molecular target: T2, GST-Yap8 WT; experiment: as above
[5] = molecular target: T4, GST-Yap8-R11A (Saccharomyces cerevisiae, UniProt Q06596 1-294, R11A); experiment: as above
T4 sequence: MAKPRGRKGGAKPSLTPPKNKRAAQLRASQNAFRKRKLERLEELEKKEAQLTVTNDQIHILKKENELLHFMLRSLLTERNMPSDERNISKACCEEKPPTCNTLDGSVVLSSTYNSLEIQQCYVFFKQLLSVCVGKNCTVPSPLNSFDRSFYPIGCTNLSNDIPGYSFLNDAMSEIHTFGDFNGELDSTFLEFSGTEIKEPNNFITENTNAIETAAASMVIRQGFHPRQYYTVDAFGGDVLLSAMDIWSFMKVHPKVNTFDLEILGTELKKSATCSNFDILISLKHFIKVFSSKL

[6] = molecular target: T2, GST-Yap8 WT; experiment: fluorescence anisotropy; series c; FA: 10 mM Tris-HCl pH 8, 50 mM NaCl, 0.5% NP-40, 1 mM DTT, 5% glycerol, 1 nM DNA, 25C (half volume protein elution buffer). Biotin EMSA: LightShift 1x buffer, 50 ng poly(dI-dC), 2.5% glycerol, 0.05% NP-40, 5 mM MgCl2, 20 fmol probe, RT 20 min. 32P EMSA: 10 mM Tris-HCl pH 8.0, 50 mM NaCl, 1 mM DTT, 0.05% NP-40, 100 ng poly(dI-dC), 6% glycerol, 4C 30 min

B1: ACR3-WT (FAM) (dsDNA)
DNA 1: CTTTTTGTTTGATTAATAATCAACTTTAGCG
DNA 2: CGCTAAAGTTGATTATTAATCAAACAAAAAG
[1]
  Kd: 25.5 ± 4.3 nM
[2]
  Kd: 9.9 ± 1.4 nM
[3]
  Kd: 13.4 ± 1.7 nM
[4]
  Kd: 10.8 ± 1.7 nM
[5]
  Kd: 18.9 ± 2.9 nM
[6]
  Kd: 10.8 ± 3.5 nM
